Data published in the RNAGym collection of RNA variant scans (doi:10.1093/nar/gkz1192).

B1: CPEB3 Ribozyme (parent)
chain: UAACAGGGGGCCACAGCAGAAGCGUUCACGUCGCAGCCCCUGUCAGAUUCUGGUGAAUCUGCGAAUUCUGCUGUAUAUCUC

Variants of: B1
Test: self-cleavage, relative activity (ratio to wild type); higher = more cleavage; in vitro, sequencing
In short: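 Relative activity compares each variant's cleaved/total read fraction with that of the unmutated ribozyme. To get these fractions, barcoded CPEB3 ribozyme libraries from rounds of error-prone PCR were transcribed with T7 RNA polymerase for 5 hours at 37°C and then given 15 min of DNase I treatment before EDTA was added. The RNAs were reverse transcribed with template switching and sequenced on Illumina, and DNA sequencing linked barcodes to variants. A minimum of 5 reads applied, and three batches were averaged.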

Variant | self-cleavage
UAAUAGGGGGCCACAGCAGAAGCGUUCACGACGCAGCCCCUGUCAGAUUCUGGUGAAUCUGCGAAUUCUGCUGUAUAUCUC [C4U U31A] | 0.82
UAAUAGGGGGCCACAGCAGAAGCGUUCACGUCGCAGCCCCUGUCAGAUUCUGGUGAAUCUGCGAAUACUGCUGUAUAUCUC [C4U U67A] | 0.76
UAAUAGGGGGCCACAGCAGAAGCGUUCACGUCGCAGCCCCUGUCAGAUUCUGGUGAAUCUGCGAAUCCUGCUGUAUAUCUC [C4U U67C] | 0.42
UAAUAGGGGGCCACAGCAGAAGCGUUCACGUCGCAGCCCCUGUCAGAUUCUGGUGAAUCUGCGAAUUCCGCUGUAUAUCUC [C4U U69C] | 0.86
UAAUAGGGGGCCACAGCAGAAGCGUUCACGUCGCAGCCCCUGUCAGAUUCUGGUGAAUCUGCGAAUUCUGCUGUAUAACUC [C4U U78A] | 0.9
UAAUAGGGGGCCACAGCAGAAGCGUUCACGUCGCAGCCCCUGUCAGAUUCUGGUGAAUCUGCGAAUUCUGCUGUAUACCUC [C4U U78C] | 1.14
UAAUAGGGGGCCACAGCAGAAGCGUUCACGUCGCAGCCCCUGUCAGAUUCUGGUGAAUCUGCGAACUCUGCUGUAUAUCUC [C4U U66C] | 0.59
UAACCGGGGGCCACAGCAGAAGCGUUCACGUCGCAGCCCCUGUCAGGUUCUGGUGAAUCUGCGAAUUCUGCUGUAUAUCUC [A5C A47G] | 0.78
UAACCGGGGGCCACAGCAGAAGCGUUCACGUCGCAGCCCCUGUCAGUUUCUGGUGAAUCUGCGAAUUCUGCUGUAUAUCUC [A5C A47U] | 0.53
UAAUAGGGGGCCACAGCAGAAGCGUUCACAUCGCAGCCCCUGUCAGAUUCUGGUGAAUCUGCGAAUUCUGCUGUAUAUCUC [C4U G30A] | 0.22
UAAUAGGGGGCCACAGCAGAAGCGUUCACGUCGCAGCCCCUGUCAGAUUCUGGCGAAUCUGCGAAUUCUGCUGUAUAUCUC [C4U U54C] | 1.15
UAAUAGGGGGCCACAGCAGAAGCGUUCACGUCGCAGCCCCUGUCAGAUUCUGGAGAAUCUGCGAAUUCUGCUGUAUAUCUC [C4U U54A] | 1.18
UAAUAGGGGGCCACAGCAGAAGCGUUCACGUCGCAGCCCCUGUCAGAUUCUGGUGAAUCUGCUAAUUCUGCUGUAUAUCUC [C4U G63U] | 1.23
UAAUAGGGGGCCACAGCAGAAGCGUUCACGUCGCAGCCCCUGUCAGAUUCUGGUGAAUCAGCGAAUUCUGCUGUAUAUCUC [C4U U60A] | 0.95
UAAUAGGGGGCCACAGCAGAAGCGUUCACGUCGCAGCCCCUGUCAGAUUCUGGUGAAUCCGCGAAUUCUGCUGUAUAUCUC [C4U U60C] | 0.75
UAAUAGGGGGCCACAGCAGAAGCGUUCACGUCGCAGCCCCUGUCAGAUUCUGGUGAAUCGGCGAAUUCUGCUGUAUAUCUC [C4U U60G] | 0.86
UAAUAGGGGGCCACAGCAGAAGCGUUCACGUCGCAGCCCCUGUCAGACUCUGGUGAAUCUGCGAAUUCUGCUGUAUAUCUC [C4U U48C] | 0.99

Variant | self-cleavage
UAACCGGGGGCCACAGCAGAAGCGUUCACGUCGCAGCCCCUGUCAGAUUCUGGUGAAUCUGCGAGUUCUGCUGUAUAUCUC [A5C A65G] | 0.44
UAACCGGGGGCCACAGCAGAAGGGUUCACGUCGCAGCCCCUGUCAGAUUCUGGUGAAUCUGCGAAUUCUGCUGUAUAUCUC [A5C C23G] | 0.18
UAAUAGGGGGCCACAGCAGAAGCGUUCACGUCGCAGCCCCUGUCAGAUUCUGGUGAAUCUGCGAAUUCUGCUGUAUAUCCC [C4U U80C] | 1.19
UAAUAGGGGGCCACAGCAGAAGCGUUCACGUCGCAGCCCCUGUCAGAUUCUGGUGAAUCUGCGAAUUCUGCUGUACAUCUC [C4U U76C] | 1.16
UAAUAGGGGGCCACAGCAGAAGCGUUCACGUCGCAGCCCCCGUCAGAUUCUGGUGAAUCUGCGAAUUCUGCUGUAUAUCUC [C4U U41C] | 1.07
UAAUAGGGGGCCACAGCAGAAGCGUUCACGUCGCAGCCCCAGUCAGAUUCUGGUGAAUCUGCGAAUUCUGCUGUAUAUCUC [C4U U41A] | 0.48
UAACCGGGGGCCACAGCAGAAGCGUUCACGUCGCAGCCCCUGUCAGAUUCUGGUGAAUCUGCGGAUUCUGCUGUAUAUCUC [A5C A64G] | 1
UAACCGGGGGCCACAGCAGAAGCGUUCACGUCGCAGCCCCUGUCAGAUUCUGGUGAAUCUGCGUAUUCUGCUGUAUAUCUC [A5C A64U] | 1
UAAUAGGGGGCCACAGCAGAAGCGUUCACGUCGCAGCCCCUGUCAGAUUCUGGUGAAUCUGCGAAUUCUGCCGUAUAUCUC [C4U U72C] | 1.12
UAAUAGGGGGCCACAGCAGAAGCGUUCACGUCGCAGCCCCUGUCAGAUUCUGGUGAAUCUGCGAAUUCUGCAGUAUAUCUC [C4U U72A] | 1.01
UAACCGGGGGCCACAGCAGAAGCGUUCACGUCGCAGCCCCUGUCAGAUUCUGGUGAAUCUGCGAAUUCUGCUGUGUAUCUC [A5C A75G] | 0.69
UAAUAGGGGGCCACAGCAGAAGCGUUCACGUCGCAGCCCCUGUCAGAUUCAGGUGAAUCUGCGAAUUCUGCUGUAUAUCUC [C4U U51A] | 0.98
UAAUAGGGGGCCACAGCAGAAGCGUUCACGUCGCAGCCCCUGUCAGAUUCCGGUGAAUCUGCGAAUUCUGCUGUAUAUCUC [C4U U51C] | 1.16
UAACCGGGGGCCACAGCAGAAGCGUUCGCGUCGCAGCCCCUGUCAGAUUCUGGUGAAUCUGCGAAUUCUGCUGUAUAUCUC [A5C A28G] | 0.63
UAACCGGGGGCCACAGCAGAAGCGUUCUCGUCGCAGCCCCUGUCAGAUUCUGGUGAAUCUGCGAAUUCUGCUGUAUAUCUC [A5C A28U] | 1.12
UAAUAGGGGGCCACAGCAGAAGCGUUCACGUCGCAGCCCCUGUCAGAUUCUAGUGAAUCUGCGAAUUCUGCUGUAUAUCUC [C4U G52A] | 1.26
UAAUAGGGGGCCACAGCAGAAGCGUUCACGUCGCAGCCCCUGUCAGAUUCUGGUGAAUCUGCGAAUUCUGCUGCAUAUCUC [C4U U74C] | 1.18
